Kd data for 3 substances are collected here from PMC2777755.

Where two headings read alike, the source gives them in different places.

Test [1] has as its target Fus3 (Saccharomyces cerevisiae) (UniProt P16892). Particulars: cited from earlier work.
Test [2] deals with Kss1 (Saccharomyces cerevisiae) (UniProt P14681). Particulars: cited from earlier work.
For test [3], the target named is Ste5 minimal scaffold domain (Ste5-ms), fluorescein-labeled (S. cerevisiae) (UniProt P32917). As to the kind of experiment: fluorescence polarisation. Background: Polarisation of emitted light reports the rotation of a fluorescent probe.
Test [4] concerns the target Fus3 (Saccharomyces cerevisiae) (UniProt P16892). Conditions: cited from earlier work. The source holds these as a separate data set.

UniProt P16892, sequence (P16892 whole entry): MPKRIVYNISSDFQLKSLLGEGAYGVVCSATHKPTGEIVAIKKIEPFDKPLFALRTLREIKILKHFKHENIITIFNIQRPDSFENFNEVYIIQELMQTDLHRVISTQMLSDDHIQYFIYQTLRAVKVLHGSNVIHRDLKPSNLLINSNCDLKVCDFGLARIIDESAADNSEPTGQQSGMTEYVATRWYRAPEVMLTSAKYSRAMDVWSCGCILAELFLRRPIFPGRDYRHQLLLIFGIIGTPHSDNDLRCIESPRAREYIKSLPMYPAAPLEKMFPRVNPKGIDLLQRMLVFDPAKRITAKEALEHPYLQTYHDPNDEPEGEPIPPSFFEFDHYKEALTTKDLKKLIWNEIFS
UniProt P14681, sequence (P14681 whole entry, the tested form may be a part): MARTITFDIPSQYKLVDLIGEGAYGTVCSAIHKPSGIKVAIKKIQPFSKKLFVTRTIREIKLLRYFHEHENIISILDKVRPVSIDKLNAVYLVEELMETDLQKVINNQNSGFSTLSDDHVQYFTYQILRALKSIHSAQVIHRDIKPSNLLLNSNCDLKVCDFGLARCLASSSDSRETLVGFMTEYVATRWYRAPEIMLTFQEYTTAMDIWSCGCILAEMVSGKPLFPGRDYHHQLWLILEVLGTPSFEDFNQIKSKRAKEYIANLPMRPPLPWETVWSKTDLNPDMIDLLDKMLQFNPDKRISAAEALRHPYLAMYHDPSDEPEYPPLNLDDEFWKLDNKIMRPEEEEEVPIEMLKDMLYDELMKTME

For the substance “Ste7 docking motif (from UniProt P06784)”, the dissociation constant Kd in test [1] and in test [2] was 100 nM throughout. In the case of “MAPKK Ste7 (from UniProt P06784 1-515) (enzyme)”, in test [3], the dissociation constant Kd (as a rule, the free concentration of one partner at which half of the binding sites on the other are occupied at equilibrium, for simple one-to-one binding) turned out to be 75 nM.

Turning to Ste5 288-316 (from UniProt P32917), in test [4], the Kd is 1000 nM.
